Test results from patent US20230257458A1.

Assays:
[1] = biological target: IL-11 protein (UniProt P20809); test: ELISA, purchased IL-11 antibody (Abcam, ab130083) on IL-11, positive control
[2] = biological target: IL-11-Fc protein (UniProt P20809); test: competition ELISA: IL-11R-His coated, IL-11-Fc co-incubated with a concentration gradient of the antibody, detection with HRP goat anti-IgG-Fc; blocked partner IL-11R-His
IL-11-Fc protein, sequence (P20809 22-199 limits assumed): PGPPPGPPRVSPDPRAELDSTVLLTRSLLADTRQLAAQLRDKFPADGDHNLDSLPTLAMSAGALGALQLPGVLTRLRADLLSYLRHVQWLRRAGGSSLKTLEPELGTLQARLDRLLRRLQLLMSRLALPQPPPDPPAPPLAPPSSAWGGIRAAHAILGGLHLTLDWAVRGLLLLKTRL

IL-11 protein, sequence (P20809 22-199 limits assumed): as above

Q: For 6D9A1 (Abcam, ab130083) (antibody), which OD(450 nm) value [1] is on record?
A: Its OD(450 nm) value is 3.62.

Q: What about the IC50 (read off the curve) [2] of the same substance?
A: Its IC50 (read off the curve) is 1 µg/mL.
